Consider 41 sequences from the nanobody polyreactivity screen of Harvey et al. (2022).

This series is described as follows: yeast display, Sf9 membrane polyspecificity reagent, FACS + sequencing; frameworks hold sequencing errors. A digest of the protocol: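 Nanobodies came from a synthetic yeast display library in Saccharomyces cerevisiae BJ5465, induced with galactose for 36–48 hours and stained for 1 hour at 4 °C with 10% biotinylated, detergent-solubilized Sf9 membrane reagent. Cells were enriched on streptavidin microbeads and then FACS-sorted, with low and high (top ~1%) gates set on anti-HA fluorescence for expression and streptavidin fluorescence for reagent binding. Each polyreactivity label reflects the gate a clone came from. Genes were amplified by colony PCR, sequenced by MiSeq 2 × 250 and filtered by CDR length.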
Consider “QVQLVESGGGLVQAGGSLRLSCAASGRIFSFYTKGWYRQEPGKERHLVAANSGSGGSTYYADSVKGRFTISRDNAKNTVYLQMISLKPEDTEFYYCAAGYGFRYYLYDYWGQGTQVTVSS”, for which the “polyreactivity (PSR sort gate)” value was “high polyreactivity”. As to “QVQLVESGGGLVQAGGSLRLSCAASGRIFSFYTMGWYRQAPGKERELVAAISSGGRTYYADSVKGRFTISRDNEKNTVYLQMNSLKPEDTAVYYCAAGSHYAFYYWGQGTQVTVSS”, the “polyreactivity (PSR sort gate)” value was “high polyreactivity”. Consider “QVQLVESGGGLVQAGGSLRLSCAASGRIFSGNAMGWYRQAPGKERELVAAISRGGSTDYADSVKGRFTISRDNAMNTVYLQMNSLKPEDTAVYYCAARVNGKRRRYDYWGQGTQVTVSS”, for which the “polyreactivity (PSR sort gate)” value is “high polyreactivity”. To “QVQLVESGGGLVQAGGSLRLSCAASGRIFSGNAMGWYRQAPGKERELVAAITWSGSSTFYADSVKGRFTISRDNAKNTVYLQMNSLKPEDTAVYYCAVDSSSPVRPHTDEDYWGQGTQVTVSS” belongs “low polyreactivity”; to “QVQLVESGGGLVQAGGSLRLSCAASGRIFSGYAMGWYRQAPGKERELVAAITSGGSTNYADSVKGRFTISRDNAKNTVYLQMNSLKPEDTAVYYCAADSREVSTTAYYYWGQRTQVTVSS”, “low polyreactivity”; to “QVQLVESGGGLVQAGGSLRLSCAASGRIFSGYAMGWYRQAPGKERELVATITSGGGTYYADSVKGRFTISRDNAKNTVYLQMNSLKPEDTAVYYCNAEKKGSFRKYNYWGQGTQVTVSS”, “low polyreactivity”. “QVQLVESGGGLVQAGGSLRLSCAASGRIFSINAMGWYRQAPGKERELVAAITWSGGSTYYADSVKGRFTISRDNAKNTVYLQMNILKPEDTAVYYCAARLPWYIPTPSYRIAGGNYWGQGTQVTVSS”: the “polyreactivity (PSR sort gate)” value is “low polyreactivity”.

For the sequence “QVQLVESGGGLVQAGGSLRLSCAASGRIFSINTMGWYRQAPGKERELVAAISVSGGRTYYADSVKGRFTISRENAKKSVYVQMNSLKPEVTAGYYCGAYGTTRMDYWGQGTQVTVSS”, the “polyreactivity (PSR sort gate)” value was “high polyreactivity”. In the case of “QVQLVESGGGLVQAGGSLRLSCAASGRIFSIYAMGWYRQAPGKERELVAAIRSVGDTNYADSVKGRFTISRDNAKNTVYLQMNSLNPEDTAVYYCAAGTSDGGYHYDFWGQGSQVTVSS”, the “polyreactivity (PSR sort gate)” value is “high polyreactivity”. The same measure for “QVQLVESGGGLVQAGGSLRLSCAASGRIFSIYAMGWYRQAPGKERELVAAISSRGGSTYYADSVKGRFTISRDNAKNTVYLQMNSLKPEDTAVYYCNAVSWEGYDFDYWGQGTQVTVSS”: “high polyreactivity”; for “QVQLVESGGGLVQAGGSLRLSCAASGRIFSIYAMGWYRQAPGKERELVAAITRGGRTNYADSVKGRFTISRDNAKNTVYLQMNSLKPEDTAVYYCAARRIDGVVKPYDYWGQGTQVTVSS”: “low polyreactivity”. Regarding “QVQLVESGGGLVQAGGSLRLSCAASGRIFSKNAMGWYRQAPGKEMEFVATISYGDGSTYYADSVKGRFTISRDNAKNTVYLQMNSLKPEDTAVYYCAATIGHNGFDYWGQGTQVTVSS”, the “polyreactivity (PSR sort gate)” value was “low polyreactivity”. To “QVQLVESGGGLVQAGGSLRLSCAASGRIFSKNAMGWYRQAPGKVRELVAAISYITGSTYADSVKGRFKISRDNAKNTDYLQMNSLKPEYTAVYYCAASSTWYGYYIYVFRAYDYWGQGTQLTVSS” belongs “low polyreactivity”. The same measure for “QVQLVESGGGLVQAGGSLRLSCAASGRIFSKYGMGWYRQAPGKETEFVAAISGSGTNTYYADSVKGRFTISRDNAKNTVYLQMNSLKPEDTAVYYCAKRKSVRSTPSYEYWGQGTQVTVSS”: “high polyreactivity”. Take “QVQLVESGGGLVQAGGSLRLSCAASGRIFSLYTMGWYRQAPGKERELVATINRSSVSTRYADSVKGRFTISRDNAKNTGYLQMNSLKPEDTAVYYCAAQRSTRYPLYYWGQGTQVTVSS”: the “polyreactivity (PSR sort gate)” value is listed as “high polyreactivity”. To “QVQLVESGGGLVQAGGSLRLSCAASGRIFSLYTMGWYRQAPGKERELVATISIGGSTNYADSVKGRFTISRDNAKNTVYLQMNSLKPEDTAVYYCATDGSIGYNDRYTNDFDYWGQGTQVTVSS” belongs “low polyreactivity”; to “QVQLVESGGGLVQAGGSLRLSCAASGRIFSNNAMGWYRQAPGKERELVAAISSSGSTYYADSVKGRFTISRDNAKNTVYLQINSLKPEDTAVYYCAVVYGYPYLRGYVFGFNYWGQGTQVTVSS”, “low polyreactivity”; to “QVQLVESGGGLVQAGGSLRLSCAASGRIFSNNAMGWYRQAPGKERELVAASNRSGDGTYYADSVKGRFTSSRDHAKNTVYLQMNSLKPEDTAVYYCAVRYYWGYTSYGYWGQGTQVTVSS”, “high polyreactivity”. Take “QVQLVESGGGLVQAGGSLRLSCAASGRIFSNNDMGWYRQAAGKERELVAAISKNGGRTYYADSVKGRFTISRDNAKNTVYLQMNSLKPEDTAVYYCAAPVKPVTGYYPYDYWGQGTQVTVSS”: the “polyreactivity (PSR sort gate)” value is given as “high polyreactivity”. The same measure for “QVQLVESGGGLVQAGGSLRLSCAASGRIFSPYAMGWYRQAPGKERELVAAITSSGGSTYYADSVKGRFTISRDNAKNTVYLQMNSLKPEDTAVYYCNARRGRYTPSVNYWGQGTQVTVSS”: “high polyreactivity”; for “QVQLVESGGGLVQAGGSLRLSCAASGRIFSPYVMGWYRQAPGKERELVAAITGSGGSTYYADSVKGRFTISRDNAKKTVYLQMNSLKPEDTAVYYCAVVSRTTAMDYRGQGTQVTVSS”: “high polyreactivity”; for “QVQLVESGGGLVQAGGSLRLSCAASGRIFSQYAMGWYRQAPGKEREFVASISRSGGRTYYADSVKGRFTISRDNAKNTVYLQMNSLKPEDTAVYYCAARAETRYYTYNYWGQGTQVTVSS”: “high polyreactivity”. To “QVQLVESGGGLVQAGGSLRLSCAASGRIFSRNAMGSYRQAPGKERELVAAITSGGSTYYADYVKGRFTISSDNAKNTVYLQLNSLKPEDTAVYTVKILRYDYWGQGTQVTVSS” belongs “high polyreactivity”. With “QVQLVESGGGLVQAGGSLRLSCAASGRIFSRNAMGWYRQAPGKERELVAAISRSGTSTYYADSVKGRFTISRDNAKNTVYLQMNSLKPEDTAVYYCAAYPYYDRDYWGQGTQVTVSS”, the “polyreactivity (PSR sort gate)” value was “low polyreactivity”. Take “QVQLVESGGGLVQAGGSLRLSCAASGRIFSRYAMGLYRQAPGKERELVAAISWSGGSTYYADSVKGRFTISRDNAKNTVYLQMNSLNTEDTAVYYCAPPIKGSDSKYGYWGQCTQVTVSS”: the “polyreactivity (PSR sort gate)” value was “high polyreactivity”. Take “QVQLVESGGGLVQAGGSLRLSCAASGRIFSRYAMGWYRQAPGKERELVAAISRSGGSTYYADSVKGRFTISRDNAKNTVYLQMNSLKPEDTAVYYCAARNVFSYPPGSYYYWGQGTQVTVSS”: the “polyreactivity (PSR sort gate)” value was “high polyreactivity”. For the sequence “QVQLVESGGGLVQAGGSLRLSCAASGRIFSRYAMGWYRQAPGKERELVAAISWSGGSTYYADSVKGRFTISRDNAKNTVYLQINSLKPEDTAVYYCAAKRQYTEYNYWGQGTQVTVSS”, the “polyreactivity (PSR sort gate)” value is listed as “high polyreactivity”. On to “QVQLVESGGGLVQAGGSLRLSCAASGRIFSRYAMGWYRQAPGKERELVAAITQSGTSTYYADSVKGRFTISRDNAKNTVYLQMNSLKPEDTAVYYCNAYRQYRYDYWGQGTQVTVSS”, for which the “polyreactivity (PSR sort gate)” value was “low polyreactivity”. The same measure for “QVQLVESGGGLVQAGGSLRLSCAASGRIFSRYAMGWYRQAPGKERELVATISSGGGTYYADSVKGRFTISRDNAKNTVYLQMNSLKPEDTAVYYCAAASYSGHGRYDDWGQGTQVPVSS”: “high polyreactivity”; for “QVQLVESGGGLVQAGGSLRLSCAASGRIFSRYAMGWYRQAPGKERELVATISSSRGGTSTNYADSVKGRFTISRDNAKNTVYLQMNSLKPEDTAVYYCNALYGRQIVDYDYWGQGTQVTVSS”: “low polyreactivity”; for “QVQLVESGGGLVQAGGSLRLSCAASGRIFSRYAMGWYRQAPGKERELVATITISGGSTYYADSVKGRFTISRDNAKNTVYLQMNSLKPEDTAVYYCAAETTASYYKRTDDYDYWGQGTQVTVSS”: “low polyreactivity”. Turning to “QVQLVESGGGLVQAGGSLRLSCAASGRIFSRYAMGWYRQAPVKERELVADITYNGGSTYYADSVKGRFTISRDNAKHTVYLQMNSLQPDDTAVYYCNAVEVLDEGWGFWYYYWGQATQVTVSS”, the “polyreactivity (PSR sort gate)” value is given as “high polyreactivity”.

On to “QVQLVESGGGLVQAGGSLRLSCAASGRIFSRYTMVWYRQAPRKERELVAAISSSGGSTYYADSVKGRFTISRDNAKNTVYLQMNSLKQEDTAVYYCAARQYIGSPPHRRRFDYWGQGTQVTVSS”, for which the “polyreactivity (PSR sort gate)” value is reported as “high polyreactivity”. In the case of “QVQLVESGGGLVQAGGSLRLSCAASGRIFSSNAMGWYRQAPGKARELVAAISTSGSTKYADSVKGRFTSSRDNAKNTVYLLMNSLKPEDTAVYYCAAKGYEYRYRYDYWGQGTQVTVSW”, the “polyreactivity (PSR sort gate)” value is given as “high polyreactivity”.

Turning to “QVQLVESGGGLVQAGGSLRLSCAASGRIFSSYAMGWYRQAPGKERELVAAISSRGGSTYYADSVKGRFTISRDNAKNTVYLQMNSLKPEDTAVNYCAKGLTALGDYWGQCTQVTVSS”, the “polyreactivity (PSR sort gate)” value is given as “high polyreactivity”. In the case of “QVQLVESGGGLVQAGGSLRLSCAASGRIFSSYAMGWYRQAPGKERELVASIDWSDGSTYYADSVKGRFTIARDNAKNTVYLQMTSLKPEDTAVYYCAADFVPYLIYGYWGQGTQVTVTS”, the “polyreactivity (PSR sort gate)” value is “low polyreactivity”. To “QVQLVESGGGLVQAGGSLRLSCAASGRIFSSYAMGWYRQEPGKERELVAVIRWSSGSTYYADSVKGRFTISRDNAKNTVYLQMNSLKPEDTAVYYCAALRRRSTKFEHDYWGQGTQVTVSS” belongs “high polyreactivity”; to “QVQLVESGGGLVQAGGSLRLSCAASGRIFSSYDMGWYRQAPGKERELDAAISSRTGITNYADSVKGRFTISRDNAKNTVYLQMNSLKPEDTAVYYCAKVGWYGYTRSYKYGYWGQGTQVTVSS”, “high polyreactivity”.

In the case of “QVQLVESGGGLVQAGGSLRLSCAASGRIFSTNAMGWYIQAPGKERELVAAISKNGGRTYYADSVKWRFTISRDNAKNTVYLQMNSLKPEDTAVYYCAAPVKPVTGYYPYDYWGQGTQVTVSS”, the “polyreactivity (PSR sort gate)” value is recorded as “high polyreactivity”. “QVQLVESGGGLVQAGGSLRLSCAASGRIFSTNAMGWYRQAPGKERELVARINSGGGSTYADSVKGRFTISRDNAKNTVYLQMNSLKPEDTAVYYCAASRRFQWRAYGYWGQGTQVTVSS”: the “polyreactivity (PSR sort gate)” value is recorded as “high polyreactivity”. “QVQLVESGGGLVQAGGSLRLSCAASGRIFSTNAMGWYRQAPGTERELVAAISRRGASTYYADSVKGRFTISRDNAKNTVYLQMNSLKPEDTAVYYCAAVIGTGGRYNYWGQGTQVTVSS”: the “polyreactivity (PSR sort gate)” value is listed as “high polyreactivity”.
